Results taken from patent US20240116985A1 (published 2024).
Starred links: 1 amine or outer side, 2 acyl side, 3 side chain; linkers in the order of their positions; H or OH if unused. Positions of bridges follow the written chain, without caps; N, C: chain ends. Non-standard residues stand in square brackets, D forms with d. Primed or numbered codes have the meaning given here. PyrS2″ = (S)-3-amino-1-((pent-4-en-1-yloxy)carbonyl)pyrrolidine-3-carboxylic acid (stapling residue), C=CCCCOC(=O)N1CC[C@@](N[*:1])(C(=O)[*:2])C1; B5(4) = 2,2-bis(4-pentenyl)glycine = 2-amino-2-(pent-4-en-1-yl)hept-6-enoic acid (stitching residue), C=CCCCC(CCCC=C)(N[*:1])C(=O)[*:2]; B5(5) = 2,2-bis(4-pentenyl)glycine, 2-amino-2-(pent-4-en-1-yl)hept-6-enoic acid (stitching residue), C=CCCCC(CCCC=C)(N[*:1])C(=O)[*:2]; B5(20) = 2-amino-2-(pent-4-en-1-yl)hept-6-enoic acid = bis(4-pentenyl)glycine, stitching residue, C=CCCCC(CCCC=C)(N[*:1])C(=O)[*:2]; B5(21) = 2-amino-2-(pent-4-en-1-yl)hept-6-enoic acid, bis(4-pentenyl)glycine (stitching residue), C=CCCCC(CCCC=C)(N[*:1])C(=O)[*:2]; TfeGA = (S)-2-amino-3-((carboxymethyl)(2,2,2-trifluoroethyl)amino)propanoic acid, O=C([C@H](CN(CC(=O)[*:3])CC(F)(F)F)N[*:1])[*:2]; PyrS2 = (S)-3-amino-1-((pent-4-en-1-yloxy)carbonyl)pyrrolidine-3-carboxylic acid, C=CCCCOC(=O)N1CC[C@@](N[*:1])(C(=O)[*:2])C1; (Ac)GA = (S)-2-amino-3-(N-(carboxymethyl)acetamido)propanoic acid, CC(=O)N(CC(=O)[*:3])C[C@H](N[*:1])C(=O)[*:2]; GA = (S)-2-amino-3-((carboxymethyl)amino)propanoic acid, O=C([C@H](CNCC(=O)[*:3])N[*:1])[*:2]; B5 = 2-amino-2-(pent-4-en-1-yl)hept-6-enoic acid, C=CCCCC(CCCC=C)(N[*:1])C(=O)[*:2]; (NHiPr)AsnR = N4-isopropyl-L-asparagine, CC(C)NC(=O)C[C@H](N[*:1])C(=O)[*:2]; (NHEt)AsnR = N4-ethyl-L-asparagine, CCNC(=O)C[C@H](N[*:1])C(=O)[*:2]; 2NH2F″ = O=C([C@H](Cc1ccccc1N[*:3])N[*:1])[*:2]; Phe(2-CONH2) = NC(=O)c1ccccc1C[C@H](N)C(=O)O; Phe(2-Cl) = N[C@@H](Cc1ccccc1Cl)C(=O)O; Phe(2-OMe) = COc1ccccc1C[C@H](N)C(=O)O; Bta = N[C@@H](Cc1csc2ccccc12)C(=O)O; αAllylPro = C=CC[C@@]1(C(=O)O)CCCN1; tBuAla = CC(C)(C)C[C@H](N)C(=O)O; 3Thi = N[C@@H](Cc1ccsc1)C(=O)O; S8 = C=CCCCCCC[C@](C)(N)C(=O)O; PyrS2(4) = not defined here

T1: B-cat-Halo (beta-catenin HaloTag fusion expressed in HEK293 cells) (UniProt P35222 1-781)
T1 sequence (looked up): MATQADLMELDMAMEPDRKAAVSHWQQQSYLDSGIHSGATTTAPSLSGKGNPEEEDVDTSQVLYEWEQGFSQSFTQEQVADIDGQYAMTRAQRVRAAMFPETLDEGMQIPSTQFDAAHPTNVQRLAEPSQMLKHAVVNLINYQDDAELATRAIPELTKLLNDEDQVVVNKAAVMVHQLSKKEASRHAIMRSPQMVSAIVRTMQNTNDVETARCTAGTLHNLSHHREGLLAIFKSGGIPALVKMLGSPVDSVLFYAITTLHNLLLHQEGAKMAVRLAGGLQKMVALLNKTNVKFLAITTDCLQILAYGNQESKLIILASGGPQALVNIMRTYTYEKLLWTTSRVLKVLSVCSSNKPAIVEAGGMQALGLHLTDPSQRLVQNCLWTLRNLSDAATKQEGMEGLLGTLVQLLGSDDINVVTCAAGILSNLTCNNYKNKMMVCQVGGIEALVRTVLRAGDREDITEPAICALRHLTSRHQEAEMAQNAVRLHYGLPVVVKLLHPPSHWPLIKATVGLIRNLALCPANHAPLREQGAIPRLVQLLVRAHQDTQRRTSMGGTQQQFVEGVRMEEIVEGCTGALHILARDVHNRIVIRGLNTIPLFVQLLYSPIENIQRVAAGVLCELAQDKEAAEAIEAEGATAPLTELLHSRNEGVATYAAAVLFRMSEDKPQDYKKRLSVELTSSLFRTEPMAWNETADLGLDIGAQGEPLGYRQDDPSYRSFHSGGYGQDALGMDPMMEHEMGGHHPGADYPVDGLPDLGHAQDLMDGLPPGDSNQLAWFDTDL

T2: full-length beta-Catenin (Uniprot ID P35222) (Homo sapiens (Human), UniProt P35222 1-781)
T2 construct: also called bCat; B-Catenin
T2 sequence: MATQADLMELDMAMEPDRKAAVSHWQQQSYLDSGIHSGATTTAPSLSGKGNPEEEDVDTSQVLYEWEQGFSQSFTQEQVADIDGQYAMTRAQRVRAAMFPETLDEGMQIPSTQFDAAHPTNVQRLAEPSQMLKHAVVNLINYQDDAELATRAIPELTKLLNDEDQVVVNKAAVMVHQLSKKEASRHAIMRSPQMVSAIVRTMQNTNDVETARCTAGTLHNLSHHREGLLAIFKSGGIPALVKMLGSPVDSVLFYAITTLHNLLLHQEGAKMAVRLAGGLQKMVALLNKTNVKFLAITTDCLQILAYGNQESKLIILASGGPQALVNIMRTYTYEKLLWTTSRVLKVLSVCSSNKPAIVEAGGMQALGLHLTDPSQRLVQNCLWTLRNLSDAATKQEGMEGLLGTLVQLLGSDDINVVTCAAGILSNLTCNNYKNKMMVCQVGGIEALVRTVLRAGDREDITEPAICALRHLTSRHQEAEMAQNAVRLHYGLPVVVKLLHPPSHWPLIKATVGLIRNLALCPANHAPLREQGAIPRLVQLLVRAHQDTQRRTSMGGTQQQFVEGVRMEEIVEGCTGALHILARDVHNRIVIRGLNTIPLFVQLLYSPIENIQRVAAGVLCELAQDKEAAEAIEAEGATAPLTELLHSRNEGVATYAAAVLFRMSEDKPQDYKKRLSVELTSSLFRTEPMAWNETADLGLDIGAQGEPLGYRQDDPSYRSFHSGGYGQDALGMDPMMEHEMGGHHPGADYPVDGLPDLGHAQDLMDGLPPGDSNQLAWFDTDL

B1: I-507 (peptide)
peptide: XDAXDEAAFQXFXT
modifications: not fully specified; N-terminal acetyl (Ac); PL3 at X1, B5 at X4 and S8 at X11 stapled (PL3-B5 and B5-S8, olefin metathesis); BztA at X13; C-terminal amide (NH2)
notes: Stapled peptide composition; also called Ac-PL3-Asp-Ala-B5-Asp-Glu-Ala-Ala-Phe-Gln-S8-Phe-BztA-Thr-NH2
B2: I-508 (peptide)
peptide: XDAXDEAAFQXFXT
modifications: not fully specified; N-terminal acetyl (Ac); PL3 at X1, B5 at X4 and S8 at X11 stapled (PL3-B5 and B5-S8, olefin metathesis); BztA at X13; C-terminal amide (NH2)
notes: as for B1
B3: I-527 (peptide)
peptide: XDIXDEAAFQXFXQ
modifications: not fully specified; N-terminal acetyl (Ac); PL3 at X1, B5 at X4 and S8 at X11 stapled (PL3-B5 and B5-S8, olefin metathesis); 2OMeF at X12; BztA at X13; C-terminal amide (NH2)
notes: Stapled peptide composition; also called Ac-PL3-Asp-Ile-B5-Asp-Glu-Ala-Ala-Phe-Gln-S8-2OMeF-BztA-Gln-NH2
B4: I-528 (peptide)
peptide: XDIXDEAAFQXFXQ
modifications: not fully specified; N-terminal acetyl (Ac); PL3 at X1, B5 at X4 and S8 at X11 stapled (PL3-B5 and B5-S8, olefin metathesis); 2OMeF at X12; BztA at X13; C-terminal amide (NH2)
notes: as for B3
B5: I-512 (peptide)
peptide: Ac-[αAllylPro]DI[B5(20)]DEAAFN[S8][Phe(2-OMe)][Bta]H-NH2
modifications: staple 1-4, 4-11
notes: Stapled peptide composition; also called Ac-PL3-Asp-Ile-B5-Asp-Glu-Ala-Ala-Phe-Asn-S8-2OMeF-BztA-His-NH2
B6: I-514 (peptide)
peptide: Ac-[αAllylPro]DI[B5(20)]DEAAFN[S8][Phe(2-CONH2)][Bta]H-NH2
modifications: staple 1-4, 4-11
notes: Stapled peptide composition; also called Ac-PL3-Asp-Ile-B5-Asp-Glu-Ala-Ala-Phe-Asn-S8-2CBMF-BztA-His-NH2
B7: I-513 (peptide)
peptide: Ac-[αAllylPro]DA[B5(20)]DEAAFN[S8][Phe(2-CONH2)][Bta]H-NH2
modifications: staple 1-4, 4-11
notes: Stapled peptide composition; also called Ac-PL3-Asp-Ala-B5-Asp-Glu-Ala-Ala-Phe-Asn-S8-2CBMF-BztA-His-NH2
B8: I-535 (peptide)
peptide: Ac-[αAllylPro]DA[B5(21)][(NHiPr)AsnR]DAAFV[S8]F[Bta]Q-NH2
modifications: staple 1-4, 4-11
notes: Stapled peptide composition; also called Ac-PL3-Asp-Ala-B5-[NHiPr]AsnR-Asp-Ala-Ala-Phe-Val-S8-Phe-BztA-Gln-NH2
B9: I-536 (peptide)
peptide: Ac-[αAllylPro]DA[B5(21)][(NHEt)AsnR]DAAFV[S8]F[Bta]Q-NH2
modifications: staple 1-4, 4-11
notes: Stapled peptide composition; also called Ac-PL3-Asp-Ala-B5-[NHEt]AsnR-Asp-Ala-Ala-Phe-Val-S8-Phe-BztA-Gln-NH2

target: T1, B-cat-Halo (beta-catenin HaloTag fusion …); test: cell-based or functional assay

Ac-[αAllylPro]D[tBuAla][B5(4)]DDAA[2NH2F″]N[PyrS2(4)][Phe(2-Cl)][Bta]Q-NH2 (staple 1-4, 4-11; not fully specified; reading uncertain) [I-1727] and Ac-[αAllylPro]D[tBuAla][B5]D[(Ac)GA]AAFL[PyrS2][3Thi][Bta]Q-NH2 (staple 1-4, 4-11) [I-1729] are within 1.5-fold of each other in “NanoBRET Abs IC50” value: 34100 nM for the first, 23000 nM for the second.

Ac-[αAllylPro]D[tBuAla][B5]D[GA]AAFL[PyrS2][3Thi][Bta]Q-NH2 (staple 1-4, 4-11) [I-1731] and Ac-[αAllylPro]D[tBuAla][B5(4)]D[GA]AAFN[PyrS2(4)][3Thi][Bta]Q-NH2 (staple 1-4, 4-11; not fully specified; reading uncertain) [I-1732] cannot be ordered by “NanoBRET Abs IC50” value: 29500 nM for the first, > 20000 nM for the second.

Ac-[αAllylPro]D[tBuAla][B5]D[GA]AAFN[PyrS2][3Thi][Bta]Q-NH2 (staple 1-4, 4-11) [I-1733] and Ac-[αAllylPro]D[tBuAla][B5(5)]D[TfeGA]AAFL[PyrS2″][3Thi][Bta]L-NH2 (staple 1-4, 4-11) [I-1747] cannot be ordered by “NanoBRET Abs IC50” value: > 20000 nM for the first, > 20000 nM for the second.

target: T2, full-length beta-Catenin (Uniprot ID …); test: fluorescence polarization competition; 10 nM full-length beta-catenin + 10 nM 5FAM-TCF4(10-53) probe
Description: The plate was incubated protected from light for 60 minutes at 20° C. prior to read. Reads were performed on a CLARIOstar plate reader (BMG Labtech) in duplicate, and data were fitted to a 1:1 binding model with hill slope using an in-house script. All provided concentrations are final concentrations.

Compared with B1, B2 is 2.6-fold lower in EC50: 192 nM for the first, 73 nM for the second.

Going from B3 to B4, the EC50 falls from 98 nM to 63 nM (1.6-fold).

First: B5
Second: B6
The EC50 of the first is 1.5-fold lower: 20 nM for the first, 30 nM for the second. The first is the more potent here.

Going from B7 to B8, the EC50 rises from 143 nM to 5000 nM (35-fold). The first is the more potent here.

With B9 the EC50 was 4470 nM.
